# Values quoted from earlier work as cited in publication PMC7866529.
# Like-named read-outs stand apart in the source and are kept apart here.
# Legend:
# S100B (Homo sapiens) [1] = target: S100B (Homo sapiens) (UniProt P04271)
# S100B (Homo sapiens) [2] = target: S100B (Homo sapiens) (UniProt P04271); remark: listed apart in the source
Kd (S100B (Homo sapiens) [1]),Kd (S100B (Homo sapiens) [2]),Substance
< 0.5 nM,–,S100B (from UniProt P04271)
–,260 nM,TRTK12
